Several values for one entry are separate records, joined by “and”; a condition that tells them apart may be missing. Equal values may be shown once. Read-outs that look alike come from different tables or passages of the source.
T1: human FXIIa (human, UniProt P00748 20-615, limits assumed)
T1 sequence: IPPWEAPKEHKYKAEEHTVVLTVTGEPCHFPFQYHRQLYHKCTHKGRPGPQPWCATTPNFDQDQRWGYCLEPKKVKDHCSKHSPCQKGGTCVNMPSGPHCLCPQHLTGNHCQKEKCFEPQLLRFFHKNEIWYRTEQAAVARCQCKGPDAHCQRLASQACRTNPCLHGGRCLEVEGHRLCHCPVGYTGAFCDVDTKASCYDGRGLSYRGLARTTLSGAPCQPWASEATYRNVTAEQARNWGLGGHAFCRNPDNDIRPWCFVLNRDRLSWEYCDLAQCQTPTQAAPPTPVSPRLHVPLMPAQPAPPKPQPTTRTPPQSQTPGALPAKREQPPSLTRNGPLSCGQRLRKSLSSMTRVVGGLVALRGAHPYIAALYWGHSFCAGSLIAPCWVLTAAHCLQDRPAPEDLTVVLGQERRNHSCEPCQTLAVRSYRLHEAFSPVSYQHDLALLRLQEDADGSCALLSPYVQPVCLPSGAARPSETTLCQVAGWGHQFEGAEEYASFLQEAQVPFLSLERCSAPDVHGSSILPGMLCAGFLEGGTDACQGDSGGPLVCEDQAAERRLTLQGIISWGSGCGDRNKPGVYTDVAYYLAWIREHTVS

T2: human Factor XIIa-alpha (human, UniProt P00748 20-615)
T2 sequence: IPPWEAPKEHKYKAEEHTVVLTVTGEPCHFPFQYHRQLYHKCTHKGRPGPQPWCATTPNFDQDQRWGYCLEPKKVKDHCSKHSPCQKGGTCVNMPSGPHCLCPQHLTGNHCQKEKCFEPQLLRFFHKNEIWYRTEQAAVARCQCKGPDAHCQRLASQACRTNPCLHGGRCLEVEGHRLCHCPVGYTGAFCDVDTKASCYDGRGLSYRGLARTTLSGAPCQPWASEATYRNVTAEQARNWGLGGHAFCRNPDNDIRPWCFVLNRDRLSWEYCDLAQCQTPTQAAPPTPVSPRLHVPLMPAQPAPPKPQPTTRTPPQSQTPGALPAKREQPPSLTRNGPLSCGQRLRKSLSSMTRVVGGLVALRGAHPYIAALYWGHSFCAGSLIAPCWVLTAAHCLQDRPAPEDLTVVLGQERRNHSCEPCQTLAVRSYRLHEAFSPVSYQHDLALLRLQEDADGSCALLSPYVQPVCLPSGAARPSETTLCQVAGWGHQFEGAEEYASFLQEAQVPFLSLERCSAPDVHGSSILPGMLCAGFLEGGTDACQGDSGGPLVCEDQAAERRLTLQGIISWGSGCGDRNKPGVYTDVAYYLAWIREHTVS

T3: human Factor XII (human, UniProt P00748 20-615)
T3 construct: Zymogen bought from Enzyme Research Laboratories; also called FXII
T3 sequence: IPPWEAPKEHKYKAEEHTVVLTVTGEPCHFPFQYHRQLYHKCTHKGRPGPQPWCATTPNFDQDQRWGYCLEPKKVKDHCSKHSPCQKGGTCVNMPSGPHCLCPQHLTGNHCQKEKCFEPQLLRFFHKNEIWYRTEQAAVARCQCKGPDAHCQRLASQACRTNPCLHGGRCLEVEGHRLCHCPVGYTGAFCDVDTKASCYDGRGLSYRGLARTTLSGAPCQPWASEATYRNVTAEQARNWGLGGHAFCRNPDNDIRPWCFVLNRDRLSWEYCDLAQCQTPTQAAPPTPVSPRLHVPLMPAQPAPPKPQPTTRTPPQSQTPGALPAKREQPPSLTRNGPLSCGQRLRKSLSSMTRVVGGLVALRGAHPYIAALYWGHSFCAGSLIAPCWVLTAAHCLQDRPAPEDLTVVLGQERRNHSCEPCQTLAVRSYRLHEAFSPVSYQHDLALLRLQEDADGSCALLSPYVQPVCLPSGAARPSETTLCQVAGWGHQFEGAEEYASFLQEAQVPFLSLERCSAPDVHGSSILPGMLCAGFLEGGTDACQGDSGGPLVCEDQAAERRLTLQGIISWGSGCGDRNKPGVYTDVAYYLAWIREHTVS

T4: human Factor XIIa-beta (human, UniProt P00748 354-615, limits assumed)
T4 construct: Bought from Enzyme Research Laboratories; also called FXIIa beta; FXIIa-beta
T4 sequence: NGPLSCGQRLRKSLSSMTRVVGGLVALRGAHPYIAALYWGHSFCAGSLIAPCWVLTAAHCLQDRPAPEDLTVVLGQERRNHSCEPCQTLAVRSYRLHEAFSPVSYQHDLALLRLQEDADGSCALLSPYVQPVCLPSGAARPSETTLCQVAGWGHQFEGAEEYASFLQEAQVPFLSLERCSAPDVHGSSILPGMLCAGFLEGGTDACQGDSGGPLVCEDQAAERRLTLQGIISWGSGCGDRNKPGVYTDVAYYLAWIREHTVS


How the values were obtained:
human FXIIa [1] = molecular target: T1, human FXIIa
human Factor XIIa-alpha = molecular target: T2, human Factor XIIa-alpha; experiment: cell-based or functional assay
human FXIIa [2] = molecular target: T1, human FXIIa; experiment: competition phage ELISA on plate-coated FXIIa; competed binder: 3F7 Fab-phage at a fixed amount
human FXIIa [3] = molecular target: T1, human FXIIa; experiment: competition phage ELISA on plate-coated FXIIa; competed binder: 3H4 Fab-phage at a fixed amount
human FXIIa [4] = molecular target: T1, human FXIIa; experiment: competition phage ELISA on plate-coated FXIIa; competed binder: Inf4-phage (pTacInf4) at a fixed amount
human FXIIa [5] = molecular target: T1, human FXIIa; remark: listed apart in the source
human Factor XII = molecular target: T3, human Factor XII; experiment: SPR (Biacore), purified IgG captured on anti-mouse Fc antibody, FXII 0-500 nM, 1:1 fit, 25 C
human Factor XIIa-beta [6] = molecular target: T4, human Factor XIIa-beta; experiment: SPR (Biacore), purified IgG captured on anti-mouse Fc antibody, FXIIa beta 0-40 nM, 1:1 fit, 25 C
human Factor XIIa-beta [7] = molecular target: T4, human Factor XIIa-beta; experiment: SPR (Biacore), KD against parental 3F7
human Factor XIIa-beta [8] = molecular target: T4, human Factor XIIa-beta; experiment: SPR (Biacore), purified IgG4 captured on anti-human IgG, FXIIa beta 0-40 nM, 1:1 fit, 25 C
human Factor XIIa-beta [9] = molecular target: T4, human Factor XIIa-beta; experiment: SPR (Biacore A100), unpurified IgG4 supernatant captured on anti-human IgG, single FXIIa beta concentration (100 nM), 37 C, 1:1 fit; estimated
Method: Anti-human (Goat anti-human IgG (gamma) mouse adsorbed, Invitrogen, Cat No. H10500) was chemically immobilised on a CM-5 sensor surface using amine coupling chemistry. Culture supernatants were diluted 1/60 with running buffer before capture. Antibodies were captured for 180 seconds representing an average capture of 800 response units (RU). FXIIa beta was then injected at zero and 100 nM for 180 seconds, and dissociated for 180 seconds. All assays were conducted on a Biacore A100 instrument at 37 degrees Celsius and the data fitted to a 1:1 kinetic model.

Molecule | IC50 (read off the curve) (human FXIIa [1]) | % Inhibition, ratio FXIIa-alpha:inhibitor 1:1 (human Factor XIIa-alpha) | IC50 (read off the curve) (human FXIIa [2]) | IC50 (read off the curve) (human FXIIa [3]) | IC50 (read off the curve) (human FXIIa [4]) | m3 (parameter of the curve fit, printed in the legend box; x axis Ab in nM) of the inhibition of FXIIa amidolytic activity, OD405 (human FXIIa [5]) | % Inhibition, ratio FXIIa-alpha:Antibody 1:0.1 (human Factor XIIa-alpha) | % Inhibition, ratio FXIIa-alpha:Antibody 1:0.2 (human Factor XIIa-alpha) | % Inhibition, ratio FXIIa-alpha:Antibody 1:0.5 (human Factor XIIa-alpha) | % Inhibition, ratio FXIIa-alpha:Antibody 1:1 (human Factor XIIa-alpha) | % Inhibition, ratio FXIIa-alpha:Antibody 1:2 (human Factor XIIa-alpha) | % Inhibition, ratio FXIIa-alpha:Antibody 1:5 (human Factor XIIa-alpha) | % Inhibition, ratio FXIIa-alpha:Antibody 1:10 (human Factor XIIa-alpha) | Kd (human Factor XII) | Kd (human Factor XIIa-beta [6]) | Fold affinity improvement (human Factor XIIa-beta [7]) | Kd (human Factor XIIa-beta [8]) | koff (human Factor XIIa-beta [8]) | kon (human Factor XIIa-beta [8]) | Kd (human Factor XIIa-beta [9])
rHA-Infestin-4 (recombinant Infestin-4 fused to human albumin) | 9 nM | 90% | 5 nM | 5 nM | 3 nM | – | – | – | – | – | – | – | – | – | – | – | – | – | – | –
Anti-human FXII antibody (OT-2) | – | – | – | – | – | 12.9 and 13.5 | 21.6% | 37.7% | 76.6% | 92.7% | 96.9% | 100% | 100% | 0.69 nM | 0.76 nM | – | – | – | – | –
VR110 (antibody, V domains shown) VH: EVQLLESGGGLVQPGGSLRLSCAASGFTFSKYIMQWVRQAPGKGLEWVSGIDMPTKGTVYADSVKGRFTISRDNSKNTLYLQMNSLRAEDTAVYYCARALPRSGYLISPHYYYYALDVWGQGTTVTVSS VL: QSELTQPPSASGTPGQRVTISCSGSSSNIGRNYVYWYQQVPGTAPKLLIYSNNQRPSGVPDRFSGSKSGTSASLVISGLRSEDEADYYCAAWDASLRGVFGGGTKLTVLG | – | – | – | – | – | – | 33.7% | 66.9% | 100% | 100% | 100% | 100% | 100% | – | – | 25 fold | 0.35 nM | 3.9e-05 s⁻¹ | 110000 M⁻¹ s⁻¹ | 2.04 nM
VR24 (antibody, V domains shown) VH: EVQLLESGGGLVQPGGSLRLSCAASGFTFSKYIMQWVRQAPGKGLEWVSGIRPSGGTTVYADSVKGRFTISRDNSKNTLYLQMNSLRAEDTAVYYCARALPRSGYLISPHYYYYALDVWGQGTTVTVSS VL: QSVLTQPPSASGTPGQRVTISCSGSSEMTVHHYVYWYQQLPGTAPKLLIYSNNQRPSGVPDRFSGSKSGTSASLAISGLRSEDEADYYCAAWDASLRGVFGGGTKLTVLG | – | – | – | – | – | – | 34.5% | 67.3% | 99.7% | 100% | 100% | 100% | 100% | – | – | 33 fold | 0.26 nM | 6.4e-05 s⁻¹ | 240000 M⁻¹ s⁻¹ | 1.63 nM
VR112 (antibody, V domains shown) VH: EVQLLESGGGLVQPGGSLRLSCAASGFTFSKYIMQWVRQAPGKGLEWVSGINVPVQGTVYADSVKGRFTISRDNSKNTLYLQMNSLRAEDTAVYYCARALPRSGYLISPHYYYYALDVWGQGTTVTVSS VL: QSELTQPPSASGTPGQRVTISCSGSSSNIGRNYVYWYQQVPGTAPKLLIYSNNQRPSGVPDRFSGSKSGTSASLVISGLRSEDEADYYCAAWDASLRGVFGGGTKLTVLG | – | – | – | – | – | – | 39.9% | 68.7% | 99.7% | 100% | 100% | 100% | 100% | – | – | 51 fold | 0.17 nM | 4.3e-05 s⁻¹ | 250000 M⁻¹ s⁻¹ | 1.52 nM
VR115 (antibody, V domains shown) VH: EVQLLESGGGLVQPGGSLRLSCAASGFTFSKYIMQWVRQAPGKGLEWVSGIDIPTKGTVYADSVKGRFTISRDNSKNTLYLQMNSLRAEDTAVYYCARALPRSGYLISPHYYYYALDVWGQGTTVTVSS VL: QSELTQPPSASGTPGQRVTISCSGSSSNIGRNYVYWYQQVPGTAPKLLIYSNNQRPSGVPDRFSGSKSGTSASLVISGLRSEDEADYYCAAWDASLRGVFGGGTKLTVLG | – | – | – | – | – | – | 39.4% | 72.8% | 100% | 100% | 100% | 100% | 100% | – | – | 57 fold | 0.15 nM | 2.5e-05 s⁻¹ | 170000 M⁻¹ s⁻¹ | 1.56 nM
VR119 (antibody, V domains shown) VH: EVQLLESGGGLVQPGGSLRLSCAASGFTFSKYIMQWVRQAPGKGLEWVSGINVPLYGTVYADSVKGRFTISRDNSKNTLYLQMNSLRAEDTAVYYCARALPRSGYLISPHYYYYALDVWGQGTTVTVSS VL: QSELTQPPSASGTPGQRVTISCSGSSSNIGRNYVYWYQQVPGTAPKLLIYSNNQRPSGVPDRFSGSKSGTSASLVISGLRSEDEADYYCAAWDASLRGVFGGGTKLTVLG | – | – | – | – | – | – | – | – | – | – | – | – | – | – | – | 24 fold | 0.36 nM | 5.9e-05 s⁻¹ | 160000 M⁻¹ s⁻¹ | 1.31 nM

— patent US20200062863A1 (CSL BEHRING, published 2020)
